Assay results taken from the supplement of paper PMC11246515.
± gives the standard deviation of the averaged measurements.

Assay: total protein half-life in vivo (active degradation + dilution); higher = more stable protein
[1] = E. coli NCM3722 delta-clpP delta-lon delta-hslV, growth: N-lim chemostat, doubling time 6 h
[2] = E. coli NCM3722 delta-clpP, growth: N-lim chemostat, doubling time 6 h
[3] = E. coli NCM3722 delta-hslV, growth: N-lim chemostat, doubling time 6 h
[4] = E. coli NCM3722 delta-lon, growth: N-lim chemostat, doubling time 6 h
[5] = E. coli NCM3722 delta-smpB, growth: N-lim chemostat, doubling time 6 h
[6] = wild type E. coli NCM3722, growth: C-lim chemostat, doubling time 3 h
[7] = wild type E. coli NCM3722, growth: C-lim chemostat, doubling time 6 h
[8] = wild type E. coli NCM3722, growth: C-lim chemostat, doubling time 12 h
[9] = wild type E. coli NCM3722, growth: N-lim chemostat, doubling time 6 h
[10] = wild type E. coli NCM3722, growth: N-lim chemostat, doubling time 12 h
[11] = wild type E. coli NCM3722, growth: P-lim chemostat, doubling time 6 h
[12] = wild type E. coli NCM3722, growth: P-lim chemostat, doubling time 12 h

Row | Sequence | total protein half-life in vivo [1] [h] | total protein half-life in vivo [2] [h] | total protein half-life in vivo [3] [h] | total protein half-life in vivo [4] [h] | total protein half-life in vivo [5] [h] | total protein half-life in vivo [6] [h] | total protein half-life in vivo [7] [h] | total protein half-life in vivo [8] [h] | total protein half-life in vivo [9] [h] | total protein half-life in vivo [10] [h] | total protein half-life in vivo [11] [h] | total protein half-life in vivo [12] [h]
1 | MSRKDLANAIRALSMDAVQKANSGHPGAPMGMADIAEVLWNDFLKHNPTDPTWYDRDRFILSNGHASMLLYSLLHLTGYDLPLEELKNFRQLHSKTPGHPEIGYTPGVETTTGPLGQGLANAVGLAIAERTLAAQFNQPDHEIVDHFTYVFMGDGCLMEGISHEVCSLAGTLGLGKLIGFYDHNGISIDGETEGWFTDDTAKRFEAYHWHVIHEIDGHDPQAVKEAILEAQSVKDKPSLIICRTVIGFGSPNKAGKEEAHGAPLGEEEVALARQKLGWHHPPFEIPKEIYHAWDAREKGEKAQQSWNEKFAAYKKAHPQLAEEFTRRMSGGLPKDWEKTTQKYINELQANPAKIATRKASQNTLNAYGPMLPELLGGSADLAPSNLTIWKGSVSLKEDPAGNYIHYGVREFGMTAIANGIAHHGGFVPYTATFLMFVEYARNAARMAALMKARQIMVYTHDSIGLGEDGPTHQAVEQLASLRLTPNFSTWRPCDQVEAAVGWKLAVERHNGPTALILSRQNLAQVERTPDQVKEIARGGYVLKDSGGKPDIILIATGSEMEITLQAAEKLAGEGRNVRVVSLPSTDIFDAQDEEYRESVLPSNVAARVAVEAGIADYWYKYVGLKGAIVGMTGYGESAPADKLFPFFGFTAENIVAKAHKVLGVKGA | 4.98 ± 0.07 | 5.07 ± 0.55 | 4.95 ± 0.06 | 5.06 ± 0.13 | 4.75 ± 0.27 | 3.08 ± 0.16 | 5.63 ± 0.22 | 10.8 ± 0.69 | 4.52 ± 0.16 | 8.32 ± 0.16 | 5.83 ± 0.35 | 11.5 ± 0.12
2 | MSRLVVVSNRIAPPDEHAASAGGLAVGILGALKAAGGLWFGWSGETGNEDQPLKKVKKGNITWASFNLSEQDLDEYYNQFSNAVLWPAFHYRLDLVQFQRPAWDGYLRVNALLADKLLPLLQDDDIIWIHDYHLLPFAHELRKRGVNNRIGFFLHIPFPTPEIFNALPTYDTLLEQLCDYDLLGFQTENDRLAFLDCLSNLTRVTTRSAKSHTAWGKAFRTEVYPIGIEPKEIAKQAAGPLPPKLAQLKAELKNVQNIFSVERLDYSKGLPERFLAYEALLEKYPQHHGKIRYTQIAPTSRGDVQAYQDIRHQLENEAGRINGKYGQLGWTPLYYLNQHFDRKLLMKIFRYSDVGLVTPLRDGMNLVAKEYVAAQDPANPGVLVLSQFAGAANELTSALIVNPYDRDEVAAALDRALTMSLAERISRHAEMLDVIVKNDINHWQECFISDLKQIVPRSAESQQRDKVATFPKLA | 5.02 ± 0.71 | 4.68 ± 0.38 | 2.95 ± 0.046 | 3.23 ± 0.4 | 2.85 ± 0.093 | 2.4 ± 0.054 | 3.858 ± 0.033 | 6.061 ± 0.06 | 3.02 ± 0.29 | 4.47 ± 0.49 | 3.72 ± 0.24 | 6.83 ± 0.3
3 | MSRMAEQQLYIHGGYTSATSGRTFETINPANGNVLATVQAAGREDVDRAVKSAQQGQKIWASMTAMERSRILRRAVDILRERNDELAKLETLDTGKAYSETSTVDIVTGADVLEYYAGLIPALEGSQIPLRETSFVYTRREPLGVVAGIGAWNYPIQIALWKSAPALAAGNAMIFKPSEVTPLTALKLAEIYSEAGLPDGVFNVLPGVGAETGQYLTEHPGIAKVSFTGGVASGKKVMANSAASSLKEVTMELGGKSPLIVFDDADLDLAADIAMMANFFSSGQVCTNGTRVFVPAKCKAAFEQKILARVERIRAGDVFDPQTNFGPLVSFPHRDNVLRYIAKGKEEGARVLCGGDVLKGDGFDNGAWVAPTVFTDCSDDMTIVREEIFGPVMSILTYESEDEVIRRANDTDYGLAAGIVTADLNRAHRVIHQLEAGICWINTWGESPAEMPVGGYKHSGIGRENGVMTLQSYTQVKSIQVEMAKFQSIF | 5.11 ± 0.25 | 5.45 ± 1.3 | 5.06 ± 0.11 | 5.28 ± 0.61 | 4.486 ± 0.038 | – | 5.21 ± 0.24 | 11.1 ± 0.13 | 4.37 ± 0.14 | 7.63 ± 0.23 | 6 ± 0.24 | 11.7 ± 0.46
4 | MSRNTEATDDVKTWTGGPLNYKEGFFTQLATDELAKGINEEVVRAISAKRNEPEWMLEFRLNAYRAWLEMEEPHWLKAHYDKLNYQDYSYYSAPSCGNCDDTCASEPGAVQQTGANAFLSKEVEAAFEQLGVPVREGKEVAVDAIFDSVSVATTYREKLAEQGIIFCSFGEAIHDHPELVRKYLGTVVPGNDNFFAALNAAVASDGTFIYVPKGVRCPMELSTYFRINAEKTGQFERTILVADEDSYVSYIEGCSAPVRDSYQLHAAVVEVIIHKNAEVKYSTVQNWFPGDNNTGGILNFVTKRALCEGENSKMSWTQSETGSAITWKYPSCILRGDNSIGEFYSVALTSGHQQADTGTKMIHIGKNTKSTIISKGISAGHSQNSYRGLVKIMPTATNARNFTQCDSMLIGANCGAHTFPYVECRNNSAQLEHEATTSRIGEDQLFYCLQRGISEEDAISMIVNGFCKDVFSELPLEFAVEAQKLLAISLEHSVG | 4.92 ± 0.3 | 2.89 ± 0.11 | 1.46 ± 0.085 | 1.98 ± 0.2 | 1.58 ± 0.085 | 1.85 ± 0.4 | 3.12 ± 0.02 | 4.99 ± 0.85 | 1.51 ± 0.56 | 2.29 | 3.223 ± 0.00026 | 5.113 ± 0.048
5 | MSRPLLQLALDHSSLEAAQRDVTLLKDSVDIVEAGTILCLNEGLGAVKALREQCPDKIIVADWKVADAGETLAQQAFGAGANWMTIICAAPLATVEKGHAMAQRCGGEIQIELFGNWTLDDARDWHRIGVRQAIYHRGRDAQASGQQWGEADLARMKALSDIGLELSITGGITPADLPLFKDIRVKAFIAGRALAGAANPAQVAGDFHAQIDAIWGGARA | 4.65 | 4 | 4.08 ± 0.35 | 4.77 | 4.3 ± 0.38 | 3.07 ± 0.25 | 5.17 ± 0.32 | 9.07 ± 0.79 | 3.93 | 6.66 ± 0.91 | 5.76 | 9.91 ± 0.32
